Measured values taken from publication PMC5906480, “Tau Antibody Structure Reveals a Molecular Switch Defining a Pathological Conformation of the Tau Protein” (Scientific Reports, 2018).

System: tau in Alzheimer's disease brain fractions
Assay: Western and dot blot, Alzheimer's disease brain
Assay type: binding, human
Protocol: Mice were euthanized by cervical dislocation. Brains were quickly removed, weighed and divided sagittally down the midline to yield two hemispheres. One hemisphere was parted from the cerebellum and hindbrain, the forebrain containing cerebral cortex and hippocampus was snap-frozen on dry ice and stored at −80 °C until use for biochemical analysis. Frontal cortices from 4 AD donors (2 males and 2 females) and 4 non-demented healthy controls (HC, 2 males and 2 females) were obtained from Cambridge Bioscience (Cambridge, UK). The brain tissue samples were fresh-frozen and stored at −80 °C until used for biochemical analysis. All donors were of Caucasian race. Age of AD donors: 76–91 years. Age of the HC donors: 57–80 years. Post-mortem delays: 3–8 hours.
Brain tissue extraction was performed as described previously. Tissues were homogenized in 10 volumes of Tris-buffered saline containing protease and phosphatase inhibitors as follows: 50 mM Tris/HCl (pH 7.4); 274 mM NaCl; 5 mM KCl; 1% protease inhibitor mixture (Roche); 1% phosphatase inhibitor cocktail I & II (Sigma); and 1 mM phenylmethylsulfonyl fluoride (PMSF; Sigma). The homogenates were centrifuged at 27,000 × g for 20 min at 4 °C to obtain supernatant (S1) and pellet fractions. Pellets were re-homogenized in 5 volumes of high salt/sucrose buffer (0.8 M NaCl, 10% sucrose, 10 mM Tris/HCl, [pH 7.4], 1 mM EGTA, 1 mM PMSF) and centrifuged as above. The supernatants were collected and incubated with sarkosyl (1% final concentration; Sigma) for one hour at 37 °C, followed by centrifugation at 150,000 × g for one hour at 4 °C to obtain sarkosyl-insoluble pellets, referred to as P3. The P3 pellet was re-suspended in TE buffer (10 mM Tris/HCl [pH 8.0], 1 mM EDTA) to a volume equivalent to half of the original volume used for the brain homogenates. S1 and P3 fractions isolated from the individual 4 AD and 4 HC brains were pooled and used as AD pool and HC pool for western and dot blot analysis.
Samples were boiled in 1 × LDS loading buffer and 100 mM DTT. […] Tau and pTau levels were assessed in the samples using 1 μg/mL C5.2 overnight at 4 °C. A secondary fluorophore conjugated IgG antibody was used (IRDye 680 Goat anti-mouse, LICOR biosciences) and the signal was quantified using Odyssey CLx and Image studio software (LI-COR biosciences).
1 μl sample of S1 and P3 isolated from 24 weeks old rTg4510 and non-transgenic littermate (non-tg) mice or from four pooled Alzheimer’s disease (AD) and healthy control (HC) brains was spotted on nitrocellulose membranes. […] Bound antibodies were detected using an enhanced chemiluminescence system (ECL PLUS kit; Perkin Elmer).

B1: C5.2: novel mouse monoclonal antibody that targets the pS396 tau epitope region (antibody, V domains shown)
VH: QVQLQQSDAELVKPGASVKISCKASGYTFTDRTIHWVKQRPEQGLEWIGYIYPGDDSTKYNDMFKAKATLTADKSSNTAYMQLNSLTSDDSAVYFCARRGTMDYWGQGTSVTVSS
VL: DVQMIQSPSSLSASLGDIVTMTCQASQDTSINLNWFQQKPGKAPKLLIYGASNLEDGVPSRFSGSRYGTDFTLTISSLEDEDMATYFCLQHTYLPFTFGSGTKLEIK
Binding to insoluble tau fraction (P3) (C5.2 1 µg/mL overnight 4 °C, sarkosyl-insoluble P3, pool of 4 AD donors): binds predominantly to an insoluble tau fraction (P3)
Reactivity to soluble tau fraction (S1) (C5.2 1 µg/mL overnight 4 °C, soluble S1, pool of 4 AD donors): also has reactivity to a soluble tau fraction (S1)
Specificity for pathological tau protein (overall statement from blots and immunohistochemistry (Fig. 1), AD and rTg4510 vs controls): specific for pathological tau protein
Bands recognized in S1 and P3 (western blot, C5.2 1 µg/mL, pool of 4 AD donors): recognizes similar bands in both fractions
